Literature values, collected in article PMC3499705.
Where two headings read alike, the source gives them in different places. Blank lines part the entries; values can stand above or below the substance they belong to.

Assays:
[1] = target: VPAC1 receptor N-terminal ectodomain (Homo sapiens) (UniProt P32241); assay: intrinsic tryptophan fluorescence
[2] = target: VPAC1 receptor N-terminal ectodomain (Homo sapiens) (UniProt P32241)
VIP (Homo sapiens) = VIP (Homo sapiens) (UniProt P01282)
[3] = target: PACAP27 PACAP27 (Homo sapiens) (UniProt P18509); assay: intrinsic tryptophan fluorescence
[4] = target: VIP6-28 6-28 (Homo sapiens) (UniProt P01282); assay: intrinsic tryptophan fluorescence
Secretin (Homo sapiens) = Secretin (Homo sapiens) (UniProt P09683); assay: intrinsic tryptophan fluorescence
[5] = target: Helodermin (Heloderma suspectum) (UniProt P04204); assay: intrinsic tryptophan fluorescence
GRF (Homo sapiens) = GRF (Homo sapiens) (UniProt P01286); assay: intrinsic tryptophan fluorescence
[6] = target: VIP2-28 2-28 (Homo sapiens) (UniProt P01282); assay: intrinsic tryptophan fluorescence
PHM PHM (Homo sapiens) = PHM PHM (Homo sapiens) (UniProt P01282); assay: intrinsic tryptophan fluorescence

Substance: PACAP27 PACAP27 (from UniProt P18509)
Kd [1]: 0.57 µM

Substance: VIP2-28 2-28 (from UniProt P01282)
Kd [1]: 0.85 µM

Substance: VIP (from UniProt P01282)
Kd [2]: 0.54 µM

Substance: VPAC1 receptor 31-144 (from UniProt P32241)
Kd (VIP (Homo sapiens)): 0.54 µM | Kd [3]: 0.57 µM | Kd [4]: 0.85 µM | Kd (Secretin (Homo sapiens)): 16 µM | Kd [5]: 2.54 µM | Kd (GRF (Homo sapiens)): 10.1 µM | Kd [6]: 0.85 µM | Kd (PHM PHM (Homo sapiens)): 8 µM

Substance: helodermin (from UniProt P04204)
Kd [1]: 2.54 µM

The remaining lines, values ahead:

Kd [1]: 10.1 µM
Substance: GRF (from UniProt P01286)

Kd [1]: 8 µM
Substance: PHM PHM (from UniProt P01282)

Kd [1]: 16 µM
Substance: secretin (from UniProt P09683)
